Measurements from article PMC9513805, “A natural transdifferentiation event involving mitosis is empowered by integrating signaling inputs with conserved plasticity factors”.

T1: HMG-POP-1 (Caenorhabditis elegans, UniProt Q10666 181-281)
T1 sequence: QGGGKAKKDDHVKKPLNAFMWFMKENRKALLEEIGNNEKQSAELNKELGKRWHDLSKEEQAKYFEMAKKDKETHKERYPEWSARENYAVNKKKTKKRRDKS


How the values were obtained:
[1] = molecular target: SOX-2 (Caenorhabditis elegans, UniProt Q21305 1-283); assay: EMSA; 20 mM Tris-HCl pH 8.0, 100 mM NaCl, 100 ug/mL BSA, 1 mM EDTA, 1 mM DTT, 0.1% NP-40; 20 min on ice (supershift 30 min at room temperature), 200 ng Cy5 probe; 6%; conditions: protein: recombinant; tags: N-terminal 6xHis, C-terminal HA (pSJ6094); label: Cy5 on forward strand; blunt
Chain of SOX-2 (Q21305 whole entry): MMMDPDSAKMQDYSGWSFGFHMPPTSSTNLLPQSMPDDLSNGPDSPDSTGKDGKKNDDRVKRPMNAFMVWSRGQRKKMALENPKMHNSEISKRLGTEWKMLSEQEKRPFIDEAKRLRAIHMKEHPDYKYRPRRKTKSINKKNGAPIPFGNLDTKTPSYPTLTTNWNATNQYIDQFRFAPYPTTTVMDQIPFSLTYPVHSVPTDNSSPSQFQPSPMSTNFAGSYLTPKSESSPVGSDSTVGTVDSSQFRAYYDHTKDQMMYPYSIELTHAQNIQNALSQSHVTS

[2] = molecular target: T1, HMG-POP-1; assay: as above; conditions: protein: recombinant; tags: N-terminal 6xHis (pSJ769); label: Cy5 on forward strand; blunt

Row | Binder | binding result [1] | binding result [2]
1 | lim-6 intron 4 probe 1 (dsDNA) DNA 1: TACGATTTGCAAACAACAAACATTCCAGACAGAT DNA 2: ATCTGTCTGGAATGTTTGTTGTTTGCAAATCGTA | binds | binds
2 | lim-6 intron 4 probe 2 (dsDNA) DNA 1: CTGCTACCGTAGTGCTTTGTTGATTTAACACACA DNA 2: TGTGTGTTAAATCAACAAAGCACTACGGTAGCAG | binds | binds
